Experimental data taken from article PMC3764424, “High-resolution Structural and Thermodynamic Analysis of Extreme Stabilization of Human Procarboxypeptidase by Computational Protein Design” (Journal of Molecular Biology, 2007).

Biological target: the molecule itself
Assay: AUC; sedimentation equilibrium, 20 °C, 25 mM Tris-HCl pH 8.0, 50 mM NaCl with and without 20 mM EDTA; 13, 33 and 50 μM protein; 25,000, 35,000 and 45,000 rpm; monomer-dimer model, dimer to monomers

B1: AYEdes (N-terminal His6 tag followed only by the 70 designed residues of AYEdesign) (other)
chain: KTIFVIVPTNEEQVAFLEALAKQDELNFDWQNPPTEPGQPVVILIPSDMVEWFLEMLKAKGIPFTVYVEE
For B1, the Kd was ~150 µM.
